Article PMC11321651, “Regulation of Glandular Size and Phytoalexin Biosynthesis by a Negative Feedback Loop in Cotton”

Target: T1, JAVL (JAVL_A) (UniProt A0A1U8LLK1 1-170)
T1 sequence: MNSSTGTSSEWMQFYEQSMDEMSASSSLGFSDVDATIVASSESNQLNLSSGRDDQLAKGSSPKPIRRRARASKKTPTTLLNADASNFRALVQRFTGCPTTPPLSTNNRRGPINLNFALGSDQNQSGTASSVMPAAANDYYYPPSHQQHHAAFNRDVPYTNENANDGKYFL
Assay: EMSA; EMSA: 30 °C for 30 min, then 5% native PAGE in Tris/borate/EDTA, 10 V/cm, 4 °C; 10x and 100x cold competitor; binding buffer, salt and pH not stated
Conditions: protein: recombinant; tags: His (pET32a); label: Cy5; blunt (duplex implied, only one strand printed)

B1: GoPGF promoter G-box probe (dsDNA)
DNA 1: AACAGGAGATTTCCACGTGATAATGATGTCAA
DNA 2: TTGACATCATTATCACGTGGAAATCTCCTGTT
B1: binds.

B2: AOS promoter G-box probe (dsDNA)
DNA 1: TTATGGCTGTAAAAACGTGCGAATTCATGGAG
DNA 2: CTCCATGAATTCGCACGTTTTTACAGCCATAA
B2: binds.
